Source: IntAct's records for PubMed 19262565

B1: Histone-lysine N-methyltransferase SETD7 (Homo sapiens), Q8WTS6 (parent)
chain: MDSDDEMVEEAVEGHLDDDGLPHGFCTVTYSSTDRFEGNFVHGEKNGRGKFFFFDGSTLEGYYVDDALQGQGVYTYEDGGVLQGTYVDGELNGPAQEYDTDGRLIFKGQYKDNIRHGVCWIYYPDGGSLVGEVNEDGEMTGEKIAYVYPDERTALYGKFIDGEMIEGKLATLMSTEEGRPHFELMPGNSVYHFDKSTSSCISTNALLPDPYESERVYVAESLISSAGEGLFSKVAVGPNTVMSFYNGVRITHQEVDSRDWALNGNTLSLDEETVIDVPEPYNHVSKYCASLGHKANHSFTPNCIYDMFVHPRFGPIKCIRTLRAVEADEELTVAYGYDHSPPGKSGPEAPEWYQVELKAFQATQQK

Variants of: B1
Conditions: with tf65_human RELA

| Variant | effect of a mutation on the interaction |
| --- | --- |
| H297A | disrupting interaction |
